The results in this text go back to US20190169246A1 (UNIVERSITY OF SOUTH FLORIDA, published 2019).

Usually Kd stands for the concentration at which binding is half-saturated. Read a low Kd as a tighter complex.

This experiment has as its target APC.

APC, sequence (Q14114 33-826): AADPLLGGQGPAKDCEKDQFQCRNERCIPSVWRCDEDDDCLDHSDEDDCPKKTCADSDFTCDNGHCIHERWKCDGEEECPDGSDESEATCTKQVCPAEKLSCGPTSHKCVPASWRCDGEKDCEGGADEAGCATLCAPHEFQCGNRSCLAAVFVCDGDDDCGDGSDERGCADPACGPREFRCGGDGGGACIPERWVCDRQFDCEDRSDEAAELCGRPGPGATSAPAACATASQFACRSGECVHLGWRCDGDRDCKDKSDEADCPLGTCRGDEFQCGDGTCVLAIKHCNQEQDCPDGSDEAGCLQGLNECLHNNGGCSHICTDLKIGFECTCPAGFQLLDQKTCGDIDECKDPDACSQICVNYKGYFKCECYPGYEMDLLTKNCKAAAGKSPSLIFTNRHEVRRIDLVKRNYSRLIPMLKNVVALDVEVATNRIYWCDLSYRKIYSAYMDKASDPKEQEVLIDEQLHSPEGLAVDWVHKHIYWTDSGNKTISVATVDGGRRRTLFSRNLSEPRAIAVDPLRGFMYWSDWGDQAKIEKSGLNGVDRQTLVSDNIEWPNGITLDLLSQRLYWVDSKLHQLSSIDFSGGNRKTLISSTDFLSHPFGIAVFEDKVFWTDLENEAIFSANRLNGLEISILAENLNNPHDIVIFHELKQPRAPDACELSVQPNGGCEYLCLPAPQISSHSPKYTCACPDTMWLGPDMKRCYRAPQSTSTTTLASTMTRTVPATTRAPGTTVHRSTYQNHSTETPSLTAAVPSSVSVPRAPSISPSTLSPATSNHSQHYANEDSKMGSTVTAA

B1: ApoER2 (as bound by APC) (receptor)
chain: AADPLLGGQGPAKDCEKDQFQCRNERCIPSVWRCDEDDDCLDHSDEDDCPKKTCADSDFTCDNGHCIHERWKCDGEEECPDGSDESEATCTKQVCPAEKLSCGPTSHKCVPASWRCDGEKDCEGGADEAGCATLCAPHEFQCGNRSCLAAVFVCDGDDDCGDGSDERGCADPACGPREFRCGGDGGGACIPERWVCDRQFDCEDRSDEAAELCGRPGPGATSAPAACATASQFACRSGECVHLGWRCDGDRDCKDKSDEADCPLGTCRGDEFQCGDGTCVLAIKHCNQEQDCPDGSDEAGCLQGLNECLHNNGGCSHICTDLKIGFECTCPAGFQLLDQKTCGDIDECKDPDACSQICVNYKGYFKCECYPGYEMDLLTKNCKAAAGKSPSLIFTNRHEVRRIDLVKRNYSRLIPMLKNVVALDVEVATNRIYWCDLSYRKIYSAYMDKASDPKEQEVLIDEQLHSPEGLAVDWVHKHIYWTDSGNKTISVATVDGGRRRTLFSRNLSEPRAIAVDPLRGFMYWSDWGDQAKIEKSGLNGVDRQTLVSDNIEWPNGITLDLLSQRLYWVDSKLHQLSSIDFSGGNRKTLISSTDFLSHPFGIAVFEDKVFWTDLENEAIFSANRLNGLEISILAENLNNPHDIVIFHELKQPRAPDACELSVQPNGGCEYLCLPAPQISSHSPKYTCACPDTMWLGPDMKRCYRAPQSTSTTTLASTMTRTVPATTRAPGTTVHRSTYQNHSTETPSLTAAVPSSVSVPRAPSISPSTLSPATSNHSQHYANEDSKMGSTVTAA
Regarding B1, the Kd was 30 nM.
